Measurements taken from patent publication US20160009824A1 (Merck KGaA, published 2016).

What was measured:
[1] = biological target: T1, CD20 expressed on cells (human Daudi Burkitt's lymphoma cells); CD20-transfected mouse NS0 cells; human … (human, UniProt P11836 1-297); assay: flow cytometry on Daudi cells (CD20+, CD52-), detection with TRITC F(ab')2 goat anti-human IgG Fcγ
T1 construct: whole, on cells; SU-DHL4 cells also express CD47 at low levels; also called NS0/CD20
T1 sequence (looked up): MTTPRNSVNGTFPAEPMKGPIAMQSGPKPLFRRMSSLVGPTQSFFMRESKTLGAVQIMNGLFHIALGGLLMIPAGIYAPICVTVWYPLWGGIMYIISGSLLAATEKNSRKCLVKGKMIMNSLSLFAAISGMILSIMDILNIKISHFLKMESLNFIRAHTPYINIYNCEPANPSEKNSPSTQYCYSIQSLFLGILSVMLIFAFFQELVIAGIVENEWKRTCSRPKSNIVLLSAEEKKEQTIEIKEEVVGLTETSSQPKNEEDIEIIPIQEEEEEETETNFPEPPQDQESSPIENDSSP

[2] = biological target: FcγRIII (CD16) on NK cells (human, UniProt P08637 17-254); assay: cell-based or functional assay
[3] = biological target: T1, CD20 expressed on cells (human Daudi …); assay: flow cytometry on CD20-expressing cells (Daudi by legend paragraph 36 and paragraph 140; the method paragraph 139 names Ramos), detection with TRITC F(ab')2 goat anti-human IgG Fcγ
[4] = biological target: T1, CD20 expressed on cells (human Daudi …); assay: flow cytometry on CD20-transfected NS0 cells, detection with TRITC F(ab')2 goat anti-human IgG Fcγ
[5] = biological target: T2, CD47 expressed on cells (human U937 histiocytic lymphoma cells; human SU-DHL4 cells; human A431 cells) (human, UniProt Q08722 19-323); assay: flow cytometry on U937 cells (CD47+, CD20-), detection with TRITC F(ab')2 goat anti-human IgG Fcγ
T2 construct: whole, on cells

FcγRIII (CD16) on NK cells, sequence (P08637 17-254): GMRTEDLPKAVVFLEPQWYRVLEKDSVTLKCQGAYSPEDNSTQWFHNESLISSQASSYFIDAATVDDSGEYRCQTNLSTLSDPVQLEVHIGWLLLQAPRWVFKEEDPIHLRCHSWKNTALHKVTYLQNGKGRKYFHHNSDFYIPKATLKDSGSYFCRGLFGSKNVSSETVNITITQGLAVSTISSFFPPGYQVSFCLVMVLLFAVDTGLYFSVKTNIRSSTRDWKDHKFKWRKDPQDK

B1: anti-CD52/anti-CD20 TetBiAb (bispecific antibody, human IgG1, kappa)
chain: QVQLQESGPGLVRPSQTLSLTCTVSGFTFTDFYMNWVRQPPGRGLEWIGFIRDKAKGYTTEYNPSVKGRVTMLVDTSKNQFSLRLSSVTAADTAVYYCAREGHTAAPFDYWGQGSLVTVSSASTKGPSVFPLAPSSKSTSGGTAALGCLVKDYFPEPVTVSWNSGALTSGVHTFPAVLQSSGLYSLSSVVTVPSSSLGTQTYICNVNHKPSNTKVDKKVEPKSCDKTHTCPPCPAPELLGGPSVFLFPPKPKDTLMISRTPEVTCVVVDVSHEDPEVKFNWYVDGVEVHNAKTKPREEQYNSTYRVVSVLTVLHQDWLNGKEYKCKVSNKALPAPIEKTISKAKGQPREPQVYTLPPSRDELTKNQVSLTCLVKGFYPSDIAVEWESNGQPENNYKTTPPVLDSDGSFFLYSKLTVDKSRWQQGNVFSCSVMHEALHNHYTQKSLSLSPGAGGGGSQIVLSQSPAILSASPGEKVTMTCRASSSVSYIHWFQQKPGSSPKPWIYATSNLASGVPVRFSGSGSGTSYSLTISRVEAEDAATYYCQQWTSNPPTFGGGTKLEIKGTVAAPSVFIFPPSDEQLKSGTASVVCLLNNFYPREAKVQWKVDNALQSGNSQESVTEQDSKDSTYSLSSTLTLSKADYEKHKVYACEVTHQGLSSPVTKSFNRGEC
light: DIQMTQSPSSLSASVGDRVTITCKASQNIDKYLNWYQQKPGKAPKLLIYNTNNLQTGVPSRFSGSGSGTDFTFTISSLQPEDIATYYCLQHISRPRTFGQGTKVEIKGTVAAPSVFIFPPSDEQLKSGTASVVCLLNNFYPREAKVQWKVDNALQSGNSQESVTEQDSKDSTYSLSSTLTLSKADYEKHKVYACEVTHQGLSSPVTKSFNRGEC
heavy: QVQLQQPGAELVKPGASVKMSCKASGYTFTSYNMHWVKQTPGRGLEWIGAIYPGNGDTSYNQKFKGKATLTADKSSSTAYMQLSSLTSEDSAVYYCARSTYYGGDWYFNVWGAGTTVTVSAASTKGPSVFPLAPSSKSTSGGTAALGCLVKDYFPEPVTVSWNSGALTSGVHTFPAVLQSSGLYSLSSVVTVPSSSLGTQTYICNVNHKPSNTKVDKKVEPKSC
notes: Hexameric TetBiAb from Campath and 2B8, IgG1 Fc
- binding result [1]: no binding (tested: 100 µg/ml)

B2: anti-CD20/anti-CD16 TetBiAb (bispecific antibody)
chain: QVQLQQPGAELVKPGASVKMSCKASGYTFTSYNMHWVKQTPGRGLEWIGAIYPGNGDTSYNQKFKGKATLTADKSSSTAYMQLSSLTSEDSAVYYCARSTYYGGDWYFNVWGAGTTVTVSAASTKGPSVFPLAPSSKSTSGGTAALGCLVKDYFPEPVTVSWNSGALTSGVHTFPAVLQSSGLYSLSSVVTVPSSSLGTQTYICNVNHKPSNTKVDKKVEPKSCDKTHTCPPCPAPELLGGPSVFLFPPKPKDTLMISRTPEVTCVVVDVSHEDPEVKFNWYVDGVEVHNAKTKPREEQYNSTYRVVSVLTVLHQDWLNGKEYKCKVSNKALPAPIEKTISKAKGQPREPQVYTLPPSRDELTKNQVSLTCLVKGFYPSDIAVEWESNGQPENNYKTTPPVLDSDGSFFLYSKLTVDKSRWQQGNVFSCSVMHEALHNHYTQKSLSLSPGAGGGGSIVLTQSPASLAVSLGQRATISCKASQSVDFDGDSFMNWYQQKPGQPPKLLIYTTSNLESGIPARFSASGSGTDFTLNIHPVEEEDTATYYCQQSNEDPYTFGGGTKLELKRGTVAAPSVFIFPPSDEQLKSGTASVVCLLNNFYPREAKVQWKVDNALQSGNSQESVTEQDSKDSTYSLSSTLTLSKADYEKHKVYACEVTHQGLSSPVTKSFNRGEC
light: QIVLSQSPAILSASPGEKVTMTCRASSSVSYIHWFQQKPGSSPKPWIYATSNLASGVPVRFSGSGSGTSYSLTISRVEAEDAATYYCQQWTSNPPTFGGGTKLEIKRGTVAAPSVFIFPPSDEQLKSGTASVVCLLNNFYPREAKVQWKVDNALQSGNSQESVTEQDSKDSTYSLSSTLTLSKADYEKHKVYACEVTHQGLSSPVTKSFNRGEC
heavy: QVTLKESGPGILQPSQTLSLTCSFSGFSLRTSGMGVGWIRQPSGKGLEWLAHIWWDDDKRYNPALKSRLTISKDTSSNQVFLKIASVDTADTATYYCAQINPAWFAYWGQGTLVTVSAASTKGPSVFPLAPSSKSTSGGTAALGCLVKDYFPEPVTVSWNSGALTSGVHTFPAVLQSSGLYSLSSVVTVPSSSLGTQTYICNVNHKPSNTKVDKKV
notes: Hexameric TetBiAb from 2B8 and 3G8, IgG1 Fc
- antibody-dependent cell-mediated cytotoxicity (ADCC), LDH release from Ramos cells with NK effector cells [2]: 10 fold
- EC50 (read off the curve) [3]: ~3 µg/mL

B3: anti-CD20/anti-CD52 TetBiAb (bispecific antibody, human IgG1, kappa)
chain: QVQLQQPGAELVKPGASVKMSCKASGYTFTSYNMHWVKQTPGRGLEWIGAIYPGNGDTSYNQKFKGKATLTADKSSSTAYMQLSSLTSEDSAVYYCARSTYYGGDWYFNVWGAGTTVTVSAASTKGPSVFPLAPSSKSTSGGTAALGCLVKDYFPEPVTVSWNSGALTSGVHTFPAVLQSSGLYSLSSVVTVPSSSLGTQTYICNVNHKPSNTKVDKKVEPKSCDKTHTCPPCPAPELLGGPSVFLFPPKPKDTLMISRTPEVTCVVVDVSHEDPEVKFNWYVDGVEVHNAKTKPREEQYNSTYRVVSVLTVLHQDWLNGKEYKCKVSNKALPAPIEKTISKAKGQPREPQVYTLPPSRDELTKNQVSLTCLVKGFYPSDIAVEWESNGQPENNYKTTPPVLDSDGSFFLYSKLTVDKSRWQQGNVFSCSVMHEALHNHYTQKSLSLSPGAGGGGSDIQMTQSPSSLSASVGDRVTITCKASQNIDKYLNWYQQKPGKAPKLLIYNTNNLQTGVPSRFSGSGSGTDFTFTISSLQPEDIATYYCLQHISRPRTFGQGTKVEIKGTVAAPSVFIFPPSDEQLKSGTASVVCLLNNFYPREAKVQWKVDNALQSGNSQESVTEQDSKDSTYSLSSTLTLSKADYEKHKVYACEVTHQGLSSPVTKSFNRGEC
light: QIVLSQSPAILSASPGEKVTMTCRASSSVSYIHWFQQKPGSSPKPWIYATSNLASGVPVRFSGSGSGTSYSLTISRVEAEDAATYYCQQWTSNPPTFGGGTKLEIKRGTVAAPSVFIFPPSDEQLKSGTASVVCLLNNFYPREAKVQWKVDNALQSGNSQESVTEQDSKDSTYSLSSTLTLSKADYEKHKVYACEVTHQGLSSPVTKSFNRGEC
heavy: QVQLQESGPGLVRPSQTLSLTCTVSGFTFTDFYMNWVRQPPGRGLEWIGFIRDKAKGYTTEYNPSVKGRVTMLVDTSKNQFSLRLSSVTAADTAVYYCAREGHTAAPFDYWGQGSLVTVSAASTKGPSVFPLAPSSKSTSGGTAALGCLVKDYFPEPVTVSWNSGALTSGVHTFPAVLQSSGLYSLSSVVTVPSSSLGTQTYICNVNHKPSNTKVDKKVEPKSC
notes: Hexameric TetBiAb from 2B8 and Campath, IgG1 Fc
- EC50 (read off the curve) [1]: ~5 µg/mL

B4: anti-CD20/anti-CD47 TetBiAb (bispecific antibody, human IgG1, kappa)
chain: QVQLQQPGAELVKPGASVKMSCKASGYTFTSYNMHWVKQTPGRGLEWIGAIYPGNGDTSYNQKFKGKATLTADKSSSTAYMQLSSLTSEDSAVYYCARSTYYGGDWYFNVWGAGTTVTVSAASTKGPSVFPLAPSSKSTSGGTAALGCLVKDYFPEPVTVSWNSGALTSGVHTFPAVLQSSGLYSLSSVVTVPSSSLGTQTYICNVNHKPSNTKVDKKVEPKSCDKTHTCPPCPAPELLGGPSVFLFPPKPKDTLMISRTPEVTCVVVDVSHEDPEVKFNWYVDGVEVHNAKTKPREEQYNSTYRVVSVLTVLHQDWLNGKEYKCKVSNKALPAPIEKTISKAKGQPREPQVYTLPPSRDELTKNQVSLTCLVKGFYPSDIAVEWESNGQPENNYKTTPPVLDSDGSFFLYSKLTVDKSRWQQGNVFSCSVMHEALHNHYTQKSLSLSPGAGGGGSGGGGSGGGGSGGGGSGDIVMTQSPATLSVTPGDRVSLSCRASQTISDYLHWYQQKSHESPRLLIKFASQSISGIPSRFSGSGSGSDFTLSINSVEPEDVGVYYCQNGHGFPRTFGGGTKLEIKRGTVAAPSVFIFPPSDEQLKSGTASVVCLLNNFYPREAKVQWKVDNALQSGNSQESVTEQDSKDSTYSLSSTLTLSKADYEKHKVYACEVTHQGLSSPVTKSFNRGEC
light: QIVLSQSPAILSASPGEKVTMTCRASSSVSYIHWFQQKPGSSPKPWIYATSNLASGVPVRFSGSGSGTSYSLTISRVEAEDAATYYCQQWTSNPPTFGGGTKLEIKRGTVAAPSVFIFPPSDEQLKSGTASVVCLLNNFYPREAKVQWKVDNALQSGNSQESVTEQDSKDSTYSLSSTLTLSKADYEKHKVYACEVTHQGLSSPVTKSFNRGEC
heavy: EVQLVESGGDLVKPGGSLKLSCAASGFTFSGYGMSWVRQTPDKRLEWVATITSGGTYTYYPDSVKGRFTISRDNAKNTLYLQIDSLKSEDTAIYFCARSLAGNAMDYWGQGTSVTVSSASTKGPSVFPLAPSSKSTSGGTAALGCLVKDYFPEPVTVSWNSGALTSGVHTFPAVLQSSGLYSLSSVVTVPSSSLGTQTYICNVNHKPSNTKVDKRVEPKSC
notes: Hexameric TetBiAb from 2B8 and B6H12, IgG1 Fc; Alexa 488-labelled in the SU-DHL4 assay
- binding result [4]: binds
- EC50 (read off the curve) [5]: ~10 µg/mL
